# Substitutions are numbered along the chain they refer to.
# T1: SLC38A2 (human, UniProt Q96QD8 1-506)
# T1 construct: N-terminally SII-HA tagged bait
# T1 sequence (looked up): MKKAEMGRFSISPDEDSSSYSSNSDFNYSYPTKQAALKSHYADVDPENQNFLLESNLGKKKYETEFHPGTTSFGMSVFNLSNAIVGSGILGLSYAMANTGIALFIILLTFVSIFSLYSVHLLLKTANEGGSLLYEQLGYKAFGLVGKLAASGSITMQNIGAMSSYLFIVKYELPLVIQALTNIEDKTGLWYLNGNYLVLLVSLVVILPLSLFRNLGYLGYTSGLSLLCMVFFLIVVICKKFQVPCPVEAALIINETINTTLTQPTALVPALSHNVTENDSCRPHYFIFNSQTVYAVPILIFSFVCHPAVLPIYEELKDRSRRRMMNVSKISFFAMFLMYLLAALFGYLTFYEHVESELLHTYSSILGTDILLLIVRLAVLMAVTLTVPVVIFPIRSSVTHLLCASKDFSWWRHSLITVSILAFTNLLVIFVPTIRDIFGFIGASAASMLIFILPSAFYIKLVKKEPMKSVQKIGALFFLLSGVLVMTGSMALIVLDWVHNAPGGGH
# B1: SLC38A1 (other)
# chain: MMHFKSGLELTELQNMTVPEDDNISNDSNDFTEVENGQINSKFISDRESRRSLTNSHLEKKKCDEYIPGTTSLGMSVFNLSNAIMGSGILGLAFALANTGILLFLVLLTSVTLLSIYSINLLLICSKETGCMVYEKLGEQVFGTTGKFVIFGATSLQNTGAMLSYLFIVKNELPSAIKFLMGKEETFSAWYVDGRVLVVIVTFGIILPLCLLKNLGYLGYTSGFSLSCMVFFLIVVIYKKFQIPCIVPELNSTISANSTNADTCTPKYVTFNSKTVYALPTIAFAFVCHPSVLPIYSELKDRSQKKMQMVSNISFFAMFVMYFLTAIFGYLTFYDNVQSDLLHKYQSKDDILILTVRLAVIVAVILTVPVLFFTVRSSLFELAKKTKFNLCRHTVVTCILLVVINLLVIFIPSMKDIFGVVGVTSANMLIFILPSSLYLKITDQDGDKGTQRIWAALFLGLGVLFSLVSIPLVIYDWACSSSSDEGH
# notes: N-terminally SII-HA tagged bait
# B2: full length SLC38A9 with motif 38RPF40 mutated to alanine (other)
# chain: MANMNSDSRHLGTSEVDHERDPGPMNIQFEPSDLRSKAAACIEPTNIVNVNHVIQRVSDHASAMNKRIHYYSRLTTPADKALIAPDHVVPAPEECYVYSPLGSAYKLQSYTEGYGKNTSLVTIFMIWNTMMGTSILSIPWGIKQAGFTTGMCVIILMGLLTLYCCYRVVKSRTMMFSLDTTSWEYPDVCRHYFGSFGQWSSLLFSLVSLIGAMIVYWVLMSNFLFNTGKFIFNFIHHINDTDTILSTNNSNPVICPSAGSGGHPDNSSMIFYANDTGAQQFEKWWDKSRTVPFYLVGLLLPLLNFKSPSFFSKFNILGTVSVLYLIFLVTFKAVRLGFHLEFHWFIPTEFFVPEIRFQFPQLTGVLTLAFFIHNCIITLLKNNKKQENNVRDLCIAYMLVTLTYLYIGVLVFASFPSPPLSKDCIEQNFLDNFPSSDTLSFIARIFLLFQMMTVYPLLGYLARVQLLGHIFGDIYPSIFHVLILNLIIVGAGVIMACFYPNIGGIIRYSGAACGLAFVFIYPSLIYIISLHQEERLTWPKLIFHVFIIILGVANLIVQFFM
# notes: also called 38RPF40 mutant (full length); not shown: N-terminal HA-containing tag
# B3: full length SLC38A9 with motif 70YYSR73 mutated to alanine (other)
# chain: B2 chain with A38R, A39P, A40F, Y70A, Y71A, S72A, R73A
# notes: also called 70YYSR73 mutant (full length); not shown: N-terminal HA-containing tag
# B4: full length SLC38A9 with motif 85PDH87 mutated to alanine (other)
# chain: B2 chain with A38R, A39P, A40F, P85A, D86A, H87A
# notes: also called 85PDH87 mutant (full length); not shown: N-terminal HA-containing tag
# B5: RAGD (enzyme, human, UniProt Q9NQL2 1-400, looked up)
# chain: MSQVLGKPQPQDEDDAEEEEEEDELVGLADYGDGPDSSDADPDSGTEEGVLDFSDPFSTEVKPRILLMGLRRSGKSSIQKVVFHKMSPNETLFLESTNKICREDVSNSSFVNFQIWDFPGQIDFFDPTFDYEMIFRGTGALIFVIDSQDDYMEALARLHLTVTRAYKVNTDINFEVFIHKVDGLSDDHKIETQRDIHQRANDDLADAGLEKIHLSFYLTSIYDHSIFEAFSKVVQKLIPQLPTLENLLNIFISNSGIEKAFLFDVVSKIYIATDSTPVDMQTYELCCDMIDVVIDISCIYGLKEDGAGTPYDKESTAIIKLNNTTVLYLKEVTKFLALVCFVREESFERKGLIDYNFHCFRKAIHEVFEVRMKVVKSRKVQNRLQKKKRATPNGTPRVLL
# notes: Named in the results only as one of the four RAG GTPases; also called RAG GTPase D
# B6: SLC38A9 N-terminal cytoplasmic tail deletion construct (amino acids 1-111, or amino acids 1-112) (other)
# chain: MANMNSDSRHLGTSEVDHERDPGPMNIQFEPSDLRSKRPFCIEPTNIVNVNHVIQRVSDHASAMNKRIHYYSRLTTPADKALIAPDHVVPAPEECYVYSPLGSAYKLQSYTE
# notes: also called cytoplasmic region of SLC38A9; not shown: N-terminal HA-containing tag (Strep-HA, vector pTO-SII-HA-GW)
# B7: SLC38A9 cytoplasmic region with motif 85PDH87 mutated to alanine (other)
# chain: B6 chain with P85A, D86A, H87A
# notes: also called 85PDH87 mutant (cytoplasmic region); not shown: N-terminal HA-containing tag
# B8: SLC38A9 cytoplasmic region with motif 38RPF40 mutated to alanine (other)
# chain: B6 chain with R38A, P39A, F40A
# notes: also called 38RPF40 mutant (cytoplasmic region); not shown: N-terminal HA-containing tag
# B9: SLC38A9 cytoplasmic region with motif 70YYSR73 mutated to alanine (other)
# chain: B6 chain with Y70A, Y71A, S72A, R73A
# notes: also called 70YYSR73 mutant (cytoplasmic region); not shown: N-terminal HA-containing tag
# What was measured:
# LAMTOR4 = LAMTOR4 (human, UniProt Q0VGL1 1-99); experiment: TAP-LC-MS/MS, SII-HA-tagged bait, HEK293 Flp-In TREx cells
# Protocol: (§1) Tandem affinity STREP-HA purifications were performed as previously described³. In brief, cells were stimulated with doxycycline/tetracycline for 24 h to induce expression of SII-HA-tagged bait proteins. Induction of SII-HA-LAMTOR 3 was combined with 9 h starvation in serum free medium. Protein complexes were isolated by TAP using streptavidin agarose followed by elution with biotin, and a second purification step using HA-agarose beads. Proteins were eluted with 100 mM formic acid, neutralized with triethylammonium bicarbonate (TEAB) and digested with trypsin, and the peptides were analysed by LC-MS/MS.
# LAMTOR5 = LAMTOR5 (human, UniProt O43504 1-91); experiment: as above
# Protocol: as §1
# LAMTOR1 [1] = molecular target: T2, LAMTOR1 (human, UniProt Q6IAA8 2-161); experiment: anti-HA co-IP of tagged full length point mutant from HEK293T, immunoblot (FIG. 9C)
# T2 construct: Endogenous in HEK293/HEK293T cells, or C-terminally tagged (V5 or SII-HA) when used as bait
# RAGC [2] = molecular target: T3, RAGC (human, UniProt Q9HB90 1-399); experiment: as above
# T3 construct: Endogenous, or N-terminally tagged as bait; also called RAG GTPase C
# RAGA [3] = molecular target: T4, RAGA (human, UniProt Q7L523 1-313); experiment: as above
# T4 construct: Endogenous, or N-terminally tagged as bait; RAG GTPases act as heterodimers of RAGA/B with RAGC/D; also called RAG GTPase A
# LAMTOR3 [4] = molecular target: T5, LAMTOR3 (human, UniProt Q9UHA4 1-124, limits assumed); experiment: as above
# T5 construct: also called SII-HA-LAMTOR 3
# SLC38A1 = molecular target: B1; experiment: TAP-LC-MS/MS, SII-HA-tagged bait, HEK293 Flp-In TREx cells
# Protocol: as §1
# SLC38A2 = molecular target: T1, SLC38A2; experiment: as above
# Protocol: as §1
# LAMTOR1 [5] = molecular target: T2, LAMTOR1; experiment: anti-HA co-IP of tagged deletion construct from HEK293T, immunoblot (FIG. 2D)
# Source text: (§2) Proteins filtered using SAINT³⁵ that interacted with at least five bait proteins were retained. Previously published interactors of the Ragulator complex and RAG GTPases that were also detected are highlighted. b, Tabular view of spectral counts (maximum of biological replicate) and sequence coverage (percentage) of the core Ragulator network and published interactors detected. c HEK293T cells were transfected with the indicated constructs or empty vector (−). […] Anti-HA immunoprecipitates and cell extracts were analysed by immunoblot with the indicated antibodies. Deletion constructs are labelled with the number of the encoded amino acids (d) and point mutants with the amino acid motif substituted to alanine (e).
# (§3) Cells were transfected with Polyfect (Qiagen) and used for experiments after 24 hours. For lysis, cells were resuspended in Nonidet-40 lysis buffer (1% NP-40, 50 mM Hepes pH7.4, 250 mM NaCl, 5 mM EDTA, Halt phosphatase inhibitor cocktail (ThermoScientific), one tablet of EDTA-free protease inhibitor (Roche) per 50 ml) on ice for 5 min. Lysates were cleared by centrifugation in a microcentrifuge (13000 r.p.m., 10 min, 4 C). Proteins were quantified with BCA (Pierce). […]
# RAGA [6] = molecular target: T4, RAGA; experiment: as above
# Source text: as §2, §3
# LAMTOR1 [7] = molecular target: T2, LAMTOR1; experiment: anti-HA co-IP of tagged point mutant from HEK293T, immunoblot (FIG. 2E)
# Source text: as §2
# (§4) Cells were transfected with Polyfect (Qiagen) and used for experiments after 24 hours. For lysis, cells were resuspended in Nonidet-40 lysis buffer (1% NP-40, 50 mM Hepes pH7.4, 250 mM NaCl, 5 mM EDTA, Halt phosphatase inhibitor cocktail (ThermoScientific), one tablet of EDTA-free protease inhibitor (Roche) per 50 ml) on ice for 5 min. Lysates were cleared by centrifugation in a microcentrifuge (13000 r.p.m., 10 min, 4 C). Proteins were quantified with BCA (Pierce). For immunoprecipitations, lysates were precleared on Sepharose6 beads (Sigma) (40 min. with rotation, 4° C.) and then incubated either with HA- or V5-coupled beads (3 h with rotation, 4° C.) or with primary antibody and protein G-sepharose (GE healthcare) (14 h with rotation, 4° C.). Beads were recovered and washed four times with lysis buffer before analysis by SDS-PAGE and immunoblotting.
# RAGC [8] = molecular target: T3, RAGC; experiment: as above
# Source text: as §2, §4
# RAGA [9] = molecular target: T4, RAGA; experiment: as above
# Source text: as §2, §4
# LAMTOR3 [10] = molecular target: T5, LAMTOR3; experiment: as above
# Source text: as §2, §4
# T4 sequence (Q7L523 whole entry): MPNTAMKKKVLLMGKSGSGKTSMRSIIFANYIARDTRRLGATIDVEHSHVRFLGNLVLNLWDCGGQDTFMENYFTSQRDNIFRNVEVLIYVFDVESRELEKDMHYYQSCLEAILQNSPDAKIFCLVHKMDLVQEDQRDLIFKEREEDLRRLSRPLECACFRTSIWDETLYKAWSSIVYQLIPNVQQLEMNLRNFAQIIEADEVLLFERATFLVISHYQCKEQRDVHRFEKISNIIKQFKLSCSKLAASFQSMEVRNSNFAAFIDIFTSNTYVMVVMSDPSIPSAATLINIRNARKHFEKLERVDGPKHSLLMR
# T3 sequence (Q9HB90 whole entry): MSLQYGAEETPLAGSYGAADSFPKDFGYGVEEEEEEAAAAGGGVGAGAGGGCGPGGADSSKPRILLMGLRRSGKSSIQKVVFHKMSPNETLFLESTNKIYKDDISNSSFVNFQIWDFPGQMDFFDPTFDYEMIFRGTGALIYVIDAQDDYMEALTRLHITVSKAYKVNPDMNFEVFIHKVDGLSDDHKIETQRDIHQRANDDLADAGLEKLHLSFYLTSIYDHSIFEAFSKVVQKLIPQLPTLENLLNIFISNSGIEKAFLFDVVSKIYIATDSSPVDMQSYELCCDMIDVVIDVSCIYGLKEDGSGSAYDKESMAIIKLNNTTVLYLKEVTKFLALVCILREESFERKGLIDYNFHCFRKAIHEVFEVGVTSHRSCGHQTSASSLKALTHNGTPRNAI
# T2 sequence (Q6IAA8 2-161 limits assumed): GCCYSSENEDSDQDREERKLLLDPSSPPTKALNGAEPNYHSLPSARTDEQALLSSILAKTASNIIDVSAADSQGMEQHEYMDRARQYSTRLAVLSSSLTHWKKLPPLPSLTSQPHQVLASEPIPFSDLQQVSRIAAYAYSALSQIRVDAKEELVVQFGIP
# T5 sequence (Q9UHA4 whole entry): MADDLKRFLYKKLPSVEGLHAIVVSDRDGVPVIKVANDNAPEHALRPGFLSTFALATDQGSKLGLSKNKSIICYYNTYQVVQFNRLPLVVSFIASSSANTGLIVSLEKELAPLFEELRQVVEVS
Binder,binding result (LAMTOR1 [1]),binding result (RAGC [2]),binding result (RAGA [3]),binding result (LAMTOR3 [4]),binding result (LAMTOR1 [7]),binding result (RAGC [8]),binding result (RAGA [9]),binding result (LAMTOR3 [10]),other results
B1,,,,,,,,,binding result (LAMTOR4): no binding; binding result (LAMTOR5): no binding
B2,no binding,no binding,no binding,no binding,,,,,
B3,no binding,no binding,no binding,no binding,,,,,
B4,no binding,no binding,no binding,no binding,,,,,
B5,,,,,,,,,binding result (SLC38A1): no binding; binding result (SLC38A2): no binding
B6,,,,,,,,,binding result (LAMTOR1 [5]): binds; binding result (RAGA [6]): binds
B7,,,,,no binding,no binding,no binding,no binding,
B8,,,,,no binding,no binding,no binding,no binding,
B9,,,,,no binding,no binding,no binding,no binding,

# Source: US20170073690A1 (CEMM FORSCHUNGZENTRUM FUER MOLEKULARE MEDIZIN, published 2017)
